Non-standard residues stand in square brackets, D forms with d. No end group written: not given here. *: point of attachment. Desaminotyrosyl = O=C(CCc1ccc(O)cc1)*; NMeY = CN[C@@H](Cc1ccc(O)cc1)C(=O)O; hArg = N=C(N)NCCCC[C@H](N)C(=O)O; Agmatine = N=C(N)NCCCCN*; Nle = CCCC[C@H](N)C(=O)O; Orn = NCCC[C@H](N)C(=O)O; Abu = CC[C@H](N)C(=O)O; Aoc = NCCCCCCCC(=O)O
Key:
[1] = target: GHRH receptor of human pituitary membranes (human) (UniProt Q02643); experiment: competition vs 125I-[His1,Nle27]hGHRH(1-32)NH2, human pituitary membranes
[2] = target: T1, GHRH receptor of human pituitary membranes (human, UniProt Q02643); experiment: as above
T1 sequence: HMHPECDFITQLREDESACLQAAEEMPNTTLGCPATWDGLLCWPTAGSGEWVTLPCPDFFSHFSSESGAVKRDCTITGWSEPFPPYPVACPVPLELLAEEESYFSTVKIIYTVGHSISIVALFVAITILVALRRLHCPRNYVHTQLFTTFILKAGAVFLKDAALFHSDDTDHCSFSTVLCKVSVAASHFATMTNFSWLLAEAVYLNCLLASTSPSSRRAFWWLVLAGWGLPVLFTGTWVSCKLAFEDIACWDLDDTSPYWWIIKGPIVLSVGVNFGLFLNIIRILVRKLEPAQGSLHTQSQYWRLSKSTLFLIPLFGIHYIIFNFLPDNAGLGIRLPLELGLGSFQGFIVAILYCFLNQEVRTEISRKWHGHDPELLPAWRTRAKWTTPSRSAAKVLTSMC

[3] = target: T1, GHRH receptor of human pituitary …; experiment: as above; remark: listed apart in the source
[4] = target: T1, GHRH receptor of human pituitary …; experiment: competition vs 125I-JV-1-42, human pituitary membranes
Description: Normal human pituitaries were purchased from the National Hormone and Peptide Program (A.F. Parlow, Los Angeles, County Harbor-UCLA Medical Center, Torrance, Calif.).

[5] = target: T1, GHRH receptor of human pituitary …; experiment: competition vs 125I-[His1,Nle27]hGHRH(1-32)NH2, human pituitary membranes; remark: listed apart in the source
Description: Normal human pituitary was purchased from the National Hormone and Peptide Program (UCLA Medical Center, Torrance, Calif.).

[6] = target: T1, GHRH receptor of human pituitary …; experiment: competition vs 125I-JV-1-42, human pituitary membranes; remark: listed apart in the source
Description: The final binding affinities were expressed as IC₅₀ values and were calculated by using the LIGAND PC computerized curve-fitting program of Munson and Rodbard as modified by McPherson.

Molecule: JI-34 (peptide)
- relative affinity (binding potency) vs GHRH (vs GHRH(1-29)=1) [1]: 4.32

Molecule: JI-36 (peptide)
- relative affinity (binding potency) vs GHRH (vs GHRH(1-29)=1) [1]: 3.25

B1: P-23254 [Dat^1, D-Ala^2, Thr^8, Orn^12, Abu^15, Orn^21, Nle^27, Asp^28, Har^30]hGHRH(1-30)NH2 (peptide)
peptide: [Desaminotyrosyl][dA]DAIFTTSYR[Orn]VL[Abu]QLSAR[Orn]LLQDI[Nle]DR[hArg]-NH2
SMILES: CCCC[C@H](NC(=O)[C@@H](NC(=O)[C@H](CC(=O)O)NC(=O)[C@H](CCC(N)=O)NC(=O)[C@H](CC(C)C)NC(=O)[C@H](CC(C)C)NC(=O)[C@H](CCCN)NC(=O)[C@H](CCCNC(=N)N)NC(=O)[C@H](C)NC(=O)[C@H](CO)NC(=O)[C@H](CC(C)C)NC(=O)[C@H](CCC(N)=O)NC(=O)[C@H](CC)NC(=O)[C@H](CC(C)C)NC(=O)[C@@H](NC(=O)[C@H](CCCN)NC(=O)[C@H](CCCNC(=N)N)NC(=O)[C@H](Cc1ccc(O)cc1)NC(=O)[C@H](CO)NC(=O)[C@@H](NC(=O)[C@@H](NC(=O)[C@H](Cc1ccccc1)NC(=O)[C@@H](NC(=O)[C@H](C)NC(=O)[C@H](CC(=O)O)NC(=O)[C@@H](C)NC(=O)CCc1ccc(O)cc1)[C@@H](C)CC)[C@@H](C)O)[C@@H](C)O)C(C)C)[C@@H](C)CC)C(=O)N[C@@H](CC(=O)O)C(=O)N[C@@H](CCCNC(=N)N)C(=O)N[C@@H](CCCCNC(=N)N)C(N)=O
- IC50 [2]: 0.07 nM
- relative affinity (binding potency) vs GHRH [2]: 84.5 vs GHRH(1-29)=1
- relative affinity (binding potency) vs JI-38 [2]: 27.8 vs JI-38=1

Molecule: [NMeY][dA]DAIFTQSYR[Orn]VL[Abu]QLSAR[Orn]LLQDI[Nle]DR-NHMe [P-27403 [N-Me-Tyr^1, D-Ala^2, Gln^8, Orn^12, Abu^15, Orn^21, Nle^27, Asp^28]hGHRH(1-29)NH-CH3]
- fold enhancement of receptor binding affinity vs JI-38 [3]: ~3.7 fold vs JI-38
- IC50 [4]: 0.16 nM
- relative affinity (binding potency) vs JI-38 [4]: 27.2 vs JI-38=1
- IC50 [5]: 0.74 nM
- relative affinity (binding potency) compared to JI-38 [5]: 3.69 vs JI-38=1
- relative affinity (binding potency) compared to hGHRH(1-29) [5]: 10.3 vs hGHRH(1-29)NH2=1

B2: P-23252 [Dat^1-D-Ala^2, Orn^12, Abu^15, Orn^21, Nle^27, Asp^28, Har^30]hGHRH(1-30)NH2 (peptide)
peptide: [Desaminotyrosyl][dA]DAIFTNSYR[Orn]VL[Abu]QLSAR[Orn]LLQDI[Nle]DR[hArg]-NH2
SMILES: CCCC[C@H](NC(=O)[C@@H](NC(=O)[C@H](CC(=O)O)NC(=O)[C@H](CCC(N)=O)NC(=O)[C@H](CC(C)C)NC(=O)[C@H](CC(C)C)NC(=O)[C@H](CCCN)NC(=O)[C@H](CCCNC(=N)N)NC(=O)[C@H](C)NC(=O)[C@H](CO)NC(=O)[C@H](CC(C)C)NC(=O)[C@H](CCC(N)=O)NC(=O)[C@H](CC)NC(=O)[C@H](CC(C)C)NC(=O)[C@@H](NC(=O)[C@H](CCCN)NC(=O)[C@H](CCCNC(=N)N)NC(=O)[C@H](Cc1ccc(O)cc1)NC(=O)[C@H](CO)NC(=O)[C@H](CC(N)=O)NC(=O)[C@@H](NC(=O)[C@H](Cc1ccccc1)NC(=O)[C@@H](NC(=O)[C@H](C)NC(=O)[C@H](CC(=O)O)NC(=O)[C@@H](C)NC(=O)CCc1ccc(O)cc1)[C@@H](C)CC)[C@@H](C)O)C(C)C)[C@@H](C)CC)C(=O)N[C@@H](CC(=O)O)C(=O)N[C@@H](CCCNC(=N)N)C(=O)N[C@@H](CCCCNC(=N)N)C(N)=O
- IC50 [2]: 0.14 nM
- relative affinity (binding potency) vs GHRH [2]: 42.3 vs GHRH(1-29)=1
- relative affinity (binding potency) vs JI-38 [2]: 13.9 vs JI-38=1

Molecule: YADAIFTNSYRKVLGQLSARKLLQDIMSR-NH2 (ligand) [hGHRH(1-29)NH2]
- IC50 [2]: 5.92 nM
- IC50 [6]: 4.06 nM

B3: JI-38 [Dat^1, Gln^8, Orn^12,21, Abu^15, Nle^27, Asp^28, Agm^29]hGHRH(1-29)NH2 (peptide)
peptide: [Desaminotyrosyl]ADAIFTQSYR[Orn]VL[Abu]QLSAR[Orn]LLQDI[Nle]D[Agmatine]
SMILES: CCCC[C@H](NC(=O)[C@@H](NC(=O)[C@H](CC(=O)O)NC(=O)[C@H](CCC(N)=O)NC(=O)[C@H](CC(C)C)NC(=O)[C@H](CC(C)C)NC(=O)[C@H](CCCN)NC(=O)[C@H](CCCNC(=N)N)NC(=O)[C@H](C)NC(=O)[C@H](CO)NC(=O)[C@H](CC(C)C)NC(=O)[C@H](CCC(N)=O)NC(=O)[C@H](CC)NC(=O)[C@H](CC(C)C)NC(=O)[C@@H](NC(=O)[C@H](CCCN)NC(=O)[C@H](CCCNC(=N)N)NC(=O)[C@H](Cc1ccc(O)cc1)NC(=O)[C@H](CO)NC(=O)[C@H](CCC(N)=O)NC(=O)[C@@H](NC(=O)[C@H](Cc1ccccc1)NC(=O)[C@@H](NC(=O)[C@H](C)NC(=O)[C@H](CC(=O)O)NC(=O)[C@H](C)NC(=O)CCc1ccc(O)cc1)[C@@H](C)CC)[C@@H](C)O)C(C)C)[C@@H](C)CC)C(=O)N[C@@H](CC(=O)O)C(=O)NCCCCNC(=N)N
- IC50 [2]: 1.95 nM
- relative affinity (binding potency) vs GHRH [2]: 3.03 vs GHRH(1-29)=1
- relative affinity (binding potency) vs JI-38 [2]: 1 vs JI-38=1
- IC50 [4]: 4.35 nM
- relative affinity (binding potency) vs JI-38 [4]: 1 vs JI-38=1
- IC50 [5]: 2.74 nM
- relative affinity (binding potency) compared to JI-38 [5]: 1 vs JI-38=1
- relative affinity (binding potency) compared to hGHRH(1-29) [5]: 2.79 vs hGHRH(1-29)NH2=1
- IC50 [6]: 1.71 nM
- relative affinity (binding potency) vs GHRH [6]: 2.4 vs GHRH(1-29)=1
- relative affinity (binding potency) vs JI-38 [6]: 1 vs JI-38=1

B4: P-21304 [Dat^1, D-Ala^2, Gln^8, Orn^12, Abu^15, Orn^21, Nle^27, Asp^28, Amc^30]hGHRH(1-30)NH2 (peptide)
peptide: [Desaminotyrosyl][dA]DAIFTQSYR[Orn]VL[Abu]QLSAR[Orn]LLQDI[Nle]DR[Aoc]-NH2
SMILES: CCCC[C@H](NC(=O)[C@@H](NC(=O)[C@H](CC(=O)O)NC(=O)[C@H](CCC(N)=O)NC(=O)[C@H](CC(C)C)NC(=O)[C@H](CC(C)C)NC(=O)[C@H](CCCN)NC(=O)[C@H](CCCNC(=N)N)NC(=O)[C@H](C)NC(=O)[C@H](CO)NC(=O)[C@H](CC(C)C)NC(=O)[C@H](CCC(N)=O)NC(=O)[C@H](CC)NC(=O)[C@H](CC(C)C)NC(=O)[C@@H](NC(=O)[C@H](CCCN)NC(=O)[C@H](CCCNC(=N)N)NC(=O)[C@H](Cc1ccc(O)cc1)NC(=O)[C@H](CO)NC(=O)[C@H](CCC(N)=O)NC(=O)[C@@H](NC(=O)[C@H](Cc1ccccc1)NC(=O)[C@@H](NC(=O)[C@H](C)NC(=O)[C@H](CC(=O)O)NC(=O)[C@@H](C)NC(=O)CCc1ccc(O)cc1)[C@@H](C)CC)[C@@H](C)O)C(C)C)[C@@H](C)CC)C(=O)N[C@@H](CC(=O)O)C(=O)N[C@@H](CCCNC(=N)N)C(=O)NCCCCCCCC(N)=O
- IC50 [2]: 0.08 nM
- relative affinity (binding potency) vs GHRH [2]: 74 vs GHRH(1-29)=1
- relative affinity (binding potency) vs JI-38 [2]: 24.4 vs JI-38=1

B5: P-23256 [Dat^1, D-Ala^2, Ala^8, Orn^12, Abu^15, Orn^21, Nle^27, Asp^28, Har^30]hGHRH(1-30)NH2 (peptide)
peptide: [Desaminotyrosyl][dA]DAIFTASYR[Orn]VL[Abu]QLSAR[Orn]LLQDI[Nle]DR[hArg]-NH2
SMILES: CCCC[C@H](NC(=O)[C@@H](NC(=O)[C@H](CC(=O)O)NC(=O)[C@H](CCC(N)=O)NC(=O)[C@H](CC(C)C)NC(=O)[C@H](CC(C)C)NC(=O)[C@H](CCCN)NC(=O)[C@H](CCCNC(=N)N)NC(=O)[C@H](C)NC(=O)[C@H](CO)NC(=O)[C@H](CC(C)C)NC(=O)[C@H](CCC(N)=O)NC(=O)[C@H](CC)NC(=O)[C@H](CC(C)C)NC(=O)[C@@H](NC(=O)[C@H](CCCN)NC(=O)[C@H](CCCNC(=N)N)NC(=O)[C@H](Cc1ccc(O)cc1)NC(=O)[C@H](CO)NC(=O)[C@H](C)NC(=O)[C@@H](NC(=O)[C@H](Cc1ccccc1)NC(=O)[C@@H](NC(=O)[C@H](C)NC(=O)[C@H](CC(=O)O)NC(=O)[C@@H](C)NC(=O)CCc1ccc(O)cc1)[C@@H](C)CC)[C@@H](C)O)C(C)C)[C@@H](C)CC)C(=O)N[C@@H](CC(=O)O)C(=O)N[C@@H](CCCNC(=N)N)C(=O)N[C@@H](CCCCNC(=N)N)C(N)=O
- IC50 [2]: 0.04 nM
- relative affinity (binding potency) vs GHRH [2]: 148 vs GHRH(1-29)=1
- relative affinity (binding potency) vs JI-38 [2]: 48.7 vs JI-38=1
